{"source": "the Immune Epitope Database (IEDB)", "key": {"HLA-B*08:03": {"molecular_target": "HLA-B*08:03", "assay": "IEDB peptide-MHC binding, purified MHC/direct/fluorescence; filed as Kd, often an IC50 or EC50 that approximates it; ≥ and ≤ were set here for values at or beyond the usual limits of such assays", "conditions": "source organism: Bacillus cereus H3081.97"}, "HLA-A*01:01": {"molecular_target": "HLA-A*01:01", "assay": "IEDB peptide-MHC binding, purified MHC/competitive/fluorescence; filed as Kd, often an IC50 or EC50 that approximates it; ≥ and ≤ were set here for values at or beyond the usual limits of such assays"}, "HLA-A*11:01": {"molecular_target": "HLA-A*11:01", "assay": "IEDB peptide-MHC binding, purified MHC/competitive/fluorescence; filed as Kd, often an IC50 or EC50 that approximates it; ≥ and ≤ were set here for values at or beyond the usual limits of such assays"}, "HLA-A*26:01": {"molecular_target": "HLA-A*26:01", "assay": "IEDB peptide-MHC binding, purified MHC/competitive/fluorescence; filed as Kd, often an IC50 or EC50 that approximates it; ≥ and ≤ were set here for values at or beyond the usual limits of such assays"}, "HLA-A*30:01": {"molecular_target": "HLA-A*30:01", "assay": "IEDB peptide-MHC binding, purified MHC/competitive/fluorescence; filed as Kd, often an IC50 or EC50 that approximates it; ≥ and ≤ were set here for values at or beyond the usual limits of such assays"}, "HLA-B*08:02": {"molecular_target": "HLA-B*08:02", "assay": "IEDB peptide-MHC binding, purified MHC/competitive/fluorescence; filed as Kd, often an IC50 or EC50 that approximates it; ≥ and ≤ were set here for values at or beyond the usual limits of such assays", "conditions": "source organism: Human immunodeficiency virus 1"}, "HLA-B*15:01": {"molecular_target": "HLA-B*15:01", "assay": "IEDB peptide-MHC binding, purified MHC/competitive/fluorescence; filed as Kd, often an IC50 or EC50 that approximates it; ≥ and ≤ were set here for values at or beyond the usual limits of such assays"}, "HLA-B*15:17": {"molecular_target": "HLA-B*15:17", "assay": "IEDB peptide-MHC binding, purified MHC/competitive/fluorescence; filed as Kd, often an IC50 or EC50 that approximates it; ≥ and ≤ were set here for values at or beyond the usual limits of such assays"}, "HLA-B*39:01": {"molecular_target": "HLA-B*39:01", "assay": "IEDB peptide-MHC binding, purified MHC/competitive/fluorescence; filed as Kd, often an IC50 or EC50 that approximates it; ≥ and ≤ were set here for values at or beyond the usual limits of such assays", "conditions": "source organism: Human immunodeficiency virus 1"}, "HLA-B*57:01": {"molecular_target": "HLA-B*57:01", "assay": "IEDB peptide-MHC binding, purified MHC/competitive/fluorescence; filed as Kd, often an IC50 or EC50 that approximates it; ≥ and ≤ were set here for values at or beyond the usual limits of such assays"}, "HLA-A*02:01": {"molecular_target": "HLA-A*02:01", "assay": "IEDB peptide-MHC binding, purified MHC/competitive/fluorescence; filed as Kd, often an IC50 or EC50 that approximates it; ≥ and ≤ were set here for values at or beyond the usual limits of such assays", "conditions": "source organism: Salmonella enterica subsp. enterica serovar Typhi"}, "HLA-A*02:03": {"molecular_target": "HLA-A*02:03", "assay": "IEDB peptide-MHC binding, purified MHC/competitive/fluorescence; filed as Kd, often an IC50 or EC50 that approximates it; ≥ and ≤ were set here for values at or beyond the usual limits of such assays", "conditions": "source organism: Salmonella enterica subsp. enterica serovar Typhi"}, "HLA-A*02:06": {"molecular_target": "HLA-A*02:06", "assay": "IEDB peptide-MHC binding, purified MHC/competitive/fluorescence; filed as Kd, often an IC50 or EC50 that approximates it; ≥ and ≤ were set here for values at or beyond the usual limits of such assays", "conditions": "source organism: Salmonella enterica subsp. enterica serovar Typhi"}, "HLA-A*03:01": {"molecular_target": "HLA-A*03:01", "assay": "IEDB peptide-MHC binding, purified MHC/competitive/fluorescence; filed as Kd, often an IC50 or EC50 that approximates it; ≥ and ≤ were set here for values at or beyond the usual limits of such assays", "conditions": "source organism: Salmonella enterica subsp. enterica serovar Typhi"}, "HLA-A*31:01": {"molecular_target": "HLA-A*31:01", "assay": "IEDB peptide-MHC binding, purified MHC/competitive/fluorescence; filed as Kd, often an IC50 or EC50 that approximates it; ≥ and ≤ were set here for values at or beyond the usual limits of such assays", "conditions": "source organism: Salmonella enterica subsp. enterica serovar Typhi"}, "HLA-A*69:01": {"molecular_target": "HLA-A*69:01", "assay": "IEDB peptide-MHC binding, purified MHC/competitive/fluorescence; filed as Kd, often an IC50 or EC50 that approximates it; ≥ and ≤ were set here for values at or beyond the usual limits of such assays", "conditions": "source organism: Salmonella enterica subsp. enterica serovar Typhi"}, "HLA-B*08:01": {"molecular_target": "HLA-B*08:01", "assay": "IEDB peptide-MHC binding, purified MHC/competitive/fluorescence; filed as Kd, often an IC50 or EC50 that approximates it; ≥ and ≤ were set here for values at or beyond the usual limits of such assays", "conditions": "source organism: Salmonella enterica subsp. enterica serovar Typhi"}, "HLA-B*15:09": {"molecular_target": "HLA-B*15:09", "assay": "IEDB peptide-MHC binding, purified MHC/competitive/fluorescence; filed as Kd, often an IC50 or EC50 that approximates it; ≥ and ≤ were set here for values at or beyond the usual limits of such assays", "conditions": "source organism: Salmonella enterica subsp. enterica serovar Typhi"}, "HLA-B*27:05": {"molecular_target": "HLA-B*27:05", "assay": "IEDB peptide-MHC binding, purified MHC/competitive/fluorescence; filed as Kd, often an IC50 or EC50 that approximates it; ≥ and ≤ were set here for values at or beyond the usual limits of such assays", "conditions": "source organism: Salmonella enterica subsp. enterica serovar Typhi"}, "HLA-B*38:01": {"molecular_target": "HLA-B*38:01", "assay": "IEDB peptide-MHC binding, purified MHC/competitive/fluorescence; filed as Kd, often an IC50 or EC50 that approximates it; ≥ and ≤ were set here for values at or beyond the usual limits of such assays", "conditions": "source organism: Salmonella enterica subsp. enterica serovar Typhi"}, "HLA-B*40:01": {"molecular_target": "HLA-B*40:01", "assay": "IEDB peptide-MHC binding, purified MHC/competitive/fluorescence; filed as Kd, often an IC50 or EC50 that approximates it; ≥ and ≤ were set here for values at or beyond the usual limits of such assays", "conditions": "source organism: Salmonella enterica subsp. enterica serovar Typhi"}, "HLA-B*48:01": {"molecular_target": "HLA-B*48:01", "assay": "IEDB peptide-MHC binding, purified MHC/competitive/fluorescence; filed as Kd, often an IC50 or EC50 that approximates it; ≥ and ≤ were set here for values at or beyond the usual limits of such assays", "conditions": "source organism: Salmonella enterica subsp. enterica serovar Typhi"}, "HLA-B*58:01": {"molecular_target": "HLA-B*58:01", "assay": "IEDB peptide-MHC binding, purified MHC/competitive/fluorescence; filed as Kd, often an IC50 or EC50 that approximates it; ≥ and ≤ were set here for values at or beyond the usual limits of such assays", "conditions": "source organism: Salmonella enterica subsp. enterica serovar Typhi"}, "[1]": {"conditions": "source organism: Human immunodeficiency virus 1"}, "[2]": {"conditions": "source organism: Salmonella enterica subsp. enterica serovar Typhi"}}}
{"sequence": "FPKVRAQEL", "values": [{"measurement": "Kd", "setting": "HLA-B*08:03", "value": 0.209, "unit": "µM"}]}
{"sequence": "GTEEIRSLY", "values": [{"measurement": "Kd", "setting": "HLA-A*01:01; [1]", "value": 0.012, "unit": "µM"}, {"measurement": "Kd", "setting": "HLA-A*11:01; [1]", "value": "≥ 20", "unit": "µM"}, {"measurement": "Kd", "setting": "HLA-A*26:01; [1]", "value": 0.429, "unit": "µM"}, {"measurement": "Kd", "setting": "HLA-A*30:01; [1]", "value": 13, "unit": "µM"}, {"measurement": "Kd", "setting": "HLA-B*08:02", "value": "≥ 20", "unit": "µM"}, {"measurement": "Kd", "setting": "HLA-B*15:01; [1]", "value": "≥ 20", "unit": "µM"}, {"measurement": "Kd", "setting": "HLA-B*15:17; [1]", "value": 0.0605, "unit": "µM"}, {"measurement": "Kd", "setting": "HLA-B*39:01", "value": "≥ 20", "unit": "µM"}, {"measurement": "Kd", "setting": "HLA-B*57:01; [1]", "value": "≥ 20", "unit": "µM"}]}
{"sequence": "MSAIVSCRY", "values": [{"measurement": "Kd", "setting": "HLA-A*01:01; [2]", "value": 0.004, "unit": "µM"}, {"measurement": "Kd", "setting": "HLA-A*02:01", "value": "≥ 20", "unit": "µM"}, {"measurement": "Kd", "setting": "HLA-A*02:03", "value": "≥ 20", "unit": "µM"}, {"measurement": "Kd", "setting": "HLA-A*02:06", "value": "≥ 20", "unit": "µM"}, {"measurement": "Kd", "setting": "HLA-A*03:01", "value": 0.882, "unit": "µM"}, {"measurement": "Kd", "setting": "HLA-A*11:01; [2]", "value": "≥ 20", "unit": "µM"}, {"measurement": "Kd", "setting": "HLA-A*26:01; [2]", "value": 0.235, "unit": "µM"}, {"measurement": "Kd", "setting": "HLA-A*30:01; [2]", "value": 1.4, "unit": "µM"}, {"measurement": "Kd", "setting": "HLA-A*31:01", "value": "≥ 20", "unit": "µM"}, {"measurement": "Kd", "setting": "HLA-A*69:01", "value": "≥ 20", "unit": "µM"}, {"measurement": "Kd", "setting": "HLA-B*08:01", "value": "≥ 20", "unit": "µM"}, {"measurement": "Kd", "setting": "HLA-B*15:01; [2]", "value": 0.0512, "unit": "µM"}, {"measurement": "Kd", "setting": "HLA-B*15:09", "value": "≥ 20", "unit": "µM"}, {"measurement": "Kd", "setting": "HLA-B*15:17; [2]", "value": 0.0024, "unit": "µM"}, {"measurement": "Kd", "setting": "HLA-B*27:05", "value": "≥ 20", "unit": "µM"}, {"measurement": "Kd", "setting": "HLA-B*38:01", "value": "≥ 20", "unit": "µM"}, {"measurement": "Kd", "setting": "HLA-B*40:01", "value": "≥ 20", "unit": "µM"}, {"measurement": "Kd", "setting": "HLA-B*48:01", "value": "≥ 20", "unit": "µM"}, {"measurement": "Kd", "setting": "HLA-B*57:01; [2]", "value": 0.237, "unit": "µM"}, {"measurement": "Kd", "setting": "HLA-B*58:01", "value": 0.0275, "unit": "µM"}]}
